# Data published in paper PMC3835729.
# B1: human histidine triad nucleotide binding protein 1 (hHint1) (Homo sapiens; H114A) (protein)
# chain: ADEIAKAQVARPGGDTIFGKIIRKEIPAKIIFEDDRCLAFHDISPQAPTHFLVIPKKHISQISVAEDDDESLLGHLMIVGKKCAADLGLNKGYRMVVNEGSDGGQSVYHVHLAVLGGRQMHWPPG
# Substrate: Nc1ncnc2c1ncn2[C@@H]1O[C@H](COP(=O)(O)OC(=O)CCc2c[nH]c3ccccc23)[C@@H](O)[C@H]1O
# Experiment: purified protein
# Conditions: 20 mM HEPES, 1 mM MgCl2, pH 7.2, 25 °C
protein,measurement,value
B1,Km,0.12 ± 0.01 µM
same,kcat,0.69 ± 0.05 s⁻¹
same,kcat/Km,6e+06 ± 1e+06 M⁻¹ s⁻¹
